# Reference: patent US20260001928A1 (CORTERIA PHARMACEUTICALS, priority 2022, published 2026)
# *1 amine or outer side, *2 acyl side, *3 side chain or, on linkers, in order; H or OH if unused. Where no end group is shown, it is not given here. Side-chain parts run from the residue outwards. [ ]: non-standard residue; d: D form. The star is where a group is joined. C20 diacid = O=C(O)CCCCCCCCCCCCCCCCCCC(=O)*; C18 diacid = O=C(O)CCCCCCCCCCCCCCCCC(=O)*; C16 diacid = O=C(O)CCCCCCCCCCCCCCC(=O)*; γGlu = O=C(O)[C@H](CCC(=O)[*:2])N[*:1]; Api = NC1(C(=O)O)CCNCC1; AEEA = NCCOCCOCC(=O)O; Aib = CC(C)(N)C(=O)O; Propionyl = CCC(=O)*
# T1: CRF1R receptor (UniProt P34998 24-415, limits assumed)
# T1 sequence (looked up): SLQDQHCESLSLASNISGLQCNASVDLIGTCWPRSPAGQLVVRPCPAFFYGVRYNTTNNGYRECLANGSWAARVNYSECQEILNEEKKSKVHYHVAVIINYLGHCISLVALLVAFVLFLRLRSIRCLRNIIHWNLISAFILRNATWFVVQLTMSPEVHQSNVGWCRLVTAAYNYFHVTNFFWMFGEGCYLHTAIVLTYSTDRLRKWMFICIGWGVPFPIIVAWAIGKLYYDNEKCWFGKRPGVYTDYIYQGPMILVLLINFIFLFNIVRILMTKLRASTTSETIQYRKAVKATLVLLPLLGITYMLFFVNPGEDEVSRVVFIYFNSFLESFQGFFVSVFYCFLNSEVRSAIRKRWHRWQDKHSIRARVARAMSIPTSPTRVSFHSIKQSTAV
# What was measured:
# [1] = biological target: human corticotropin-releasing factor 2a (CRF2a receptor) (human), Q13324; assay: cell-based or functional assay
# CRF1R receptor = biological target: T1, CRF1R receptor; assay: cell-based or functional assay
# Sequence of human corticotropin-releasing factor 2a (CRF2a receptor) (human), Q13324 (Q13324 20-411): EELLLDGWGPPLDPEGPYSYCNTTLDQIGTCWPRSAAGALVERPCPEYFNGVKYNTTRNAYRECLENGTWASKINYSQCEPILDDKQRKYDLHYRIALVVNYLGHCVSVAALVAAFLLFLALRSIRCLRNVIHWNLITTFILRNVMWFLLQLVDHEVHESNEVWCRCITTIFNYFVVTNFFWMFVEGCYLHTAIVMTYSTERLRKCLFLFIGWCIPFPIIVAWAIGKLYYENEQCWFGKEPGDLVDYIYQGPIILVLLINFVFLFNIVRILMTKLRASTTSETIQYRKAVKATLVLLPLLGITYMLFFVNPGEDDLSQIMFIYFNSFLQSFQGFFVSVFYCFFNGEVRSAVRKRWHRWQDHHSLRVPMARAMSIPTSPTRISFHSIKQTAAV
Binder,EC50 [nM] (cAMP) [1],Emax (% I) (CRF1R receptor) [%],EC50 (CRF1R receptor) [nM]
Ac-VLSLD[dV]PIKLK([γGlu-C16 diacid])KILLEQEKQKKQREQAETNKQILAQV-NH2 (SMILES CC[C@H](C)[C@H](NC(=O)[C@H](CCC(N)=O)NC(=O)[C@H](CCCCN)NC(=O)[C@H](CC(N)=O)NC(=O)[C@@H](NC(=O)[C@H](CCC(=O)O)NC(=O)[C@H](C)NC(=O)[C@H](CCC(N)=O)NC(=O)[C@H](CCC(=O)O)NC(=O)[C@H](CCCNC(=N)N)NC(=O)[C@H](CCC(N)=O)NC(=O)[C@H](CCCCN)NC(=O)[C@H](CCCCN)NC(=O)[C@H](CCC(N)=O)NC(=O)[C@H](CCCCN)NC(=O)[C@H](CCC(=O)O)NC(=O)[C@H](CCC(N)=O)NC(=O)[C@H](CCC(=O)O)NC(=O)[C@H](CC(C)C)NC(=O)[C@H](CC(C)C)NC(=O)[C@@H](NC(=O)[C@H](CCCCN)NC(=O)[C@H](CCCCNC(=O)CC[C@H](NC(=O)CCCCCCCCCCCCCCC(=O)O)C(=O)O)NC(=O)[C@H](CC(C)C)NC(=O)[C@H](CCCCN)NC(=O)[C@@H](NC(=O)[C@@H]1CCCN1C(=O)[C@H](NC(=O)[C@H](CC(=O)O)NC(=O)[C@H](CC(C)C)NC(=O)[C@H](CO)NC(=O)[C@H](CC(C)C)NC(=O)[C@@H](NC(C)=O)C(C)C)C(C)C)[C@@H](C)CC)[C@@H](C)CC)[C@@H](C)O)C(=O)N[C@@H](CC(C)C)C(=O)N[C@@H](C)C(=O)N[C@@H](CCC(N)=O)C(=O)N[C@H](C(N)=O)C(C)C) [SEQ ID NO 33],0.47,13,–
Ac-VLSLD[dV]PIKLK([AEEA-AEEA-γGlu-C18 diacid])KILLEQEKQKKQREQAETNKQILAQV-NH2 (SMILES CC[C@H](C)[C@H](NC(=O)[C@H](CCC(N)=O)NC(=O)[C@H](CCCCN)NC(=O)[C@H](CC(N)=O)NC(=O)[C@@H](NC(=O)[C@H](CCC(=O)O)NC(=O)[C@H](C)NC(=O)[C@H](CCC(N)=O)NC(=O)[C@H](CCC(=O)O)NC(=O)[C@H](CCCNC(=N)N)NC(=O)[C@H](CCC(N)=O)NC(=O)[C@H](CCCCN)NC(=O)[C@H](CCCCN)NC(=O)[C@H](CCC(N)=O)NC(=O)[C@H](CCCCN)NC(=O)[C@H](CCC(=O)O)NC(=O)[C@H](CCC(N)=O)NC(=O)[C@H](CCC(=O)O)NC(=O)[C@H](CC(C)C)NC(=O)[C@H](CC(C)C)NC(=O)[C@@H](NC(=O)[C@H](CCCCN)NC(=O)[C@H](CCCCNC(=O)COCCOCCNC(=O)COCCOCCNC(=O)CC[C@H](NC(=O)CCCCCCCCCCCCCCCCC(=O)O)C(=O)O)NC(=O)[C@H](CC(C)C)NC(=O)[C@H](CCCCN)NC(=O)[C@@H](NC(=O)[C@@H]1CCCN1C(=O)[C@H](NC(=O)[C@H](CC(=O)O)NC(=O)[C@H](CC(C)C)NC(=O)[C@H](CO)NC(=O)[C@H](CC(C)C)NC(=O)[C@@H](NC(C)=O)C(C)C)C(C)C)[C@@H](C)CC)[C@@H](C)CC)[C@@H](C)O)C(=O)N[C@@H](CC(C)C)C(=O)N[C@@H](C)C(=O)N[C@@H](CCC(N)=O)C(=O)N[C@H](C(N)=O)C(C)C) [SEQ ID NO 92],2.3,5,–
VLSLD[dV]PIKLK([AEEA-AEEA-γGlu-C18 diacid])KILLEQEKQKKQREQAETNKQILAQV-NH2 (N-terminus assumed; SMILES CC[C@H](C)[C@H](NC(=O)[C@H](CCC(N)=O)NC(=O)[C@H](CCCCN)NC(=O)[C@H](CC(N)=O)NC(=O)[C@@H](NC(=O)[C@H](CCC(=O)O)NC(=O)[C@H](C)NC(=O)[C@H](CCC(N)=O)NC(=O)[C@H](CCC(=O)O)NC(=O)[C@H](CCCNC(=N)N)NC(=O)[C@H](CCC(N)=O)NC(=O)[C@H](CCCCN)NC(=O)[C@H](CCCCN)NC(=O)[C@H](CCC(N)=O)NC(=O)[C@H](CCCCN)NC(=O)[C@H](CCC(=O)O)NC(=O)[C@H](CCC(N)=O)NC(=O)[C@H](CCC(=O)O)NC(=O)[C@H](CC(C)C)NC(=O)[C@H](CC(C)C)NC(=O)[C@@H](NC(=O)[C@H](CCCCN)NC(=O)[C@H](CCCCNC(=O)COCCOCCNC(=O)COCCOCCNC(=O)CC[C@H](NC(=O)CCCCCCCCCCCCCCCCC(=O)O)C(=O)O)NC(=O)[C@H](CC(C)C)NC(=O)[C@H](CCCCN)NC(=O)[C@@H](NC(=O)[C@@H]1CCCN1C(=O)[C@H](NC(=O)[C@H](CC(=O)O)NC(=O)[C@H](CC(C)C)NC(=O)[C@H](CO)NC(=O)[C@H](CC(C)C)NC(=O)[C@@H](N)C(C)C)C(C)C)[C@@H](C)CC)[C@@H](C)CC)[C@@H](C)O)C(=O)N[C@@H](CC(C)C)C(=O)N[C@@H](C)C(=O)N[C@@H](CCC(N)=O)C(=O)N[C@H](C(N)=O)C(C)C) [SEQ ID NO 93],5.08,6,–
Ac-IVLSLD[dV]PIGLK([γGlu-C20 diacid])KILLEQEKQKKQREQAETN[Api]QILAQV-NH2 (SMILES CC[C@H](C)[C@H](NC(C)=O)C(=O)N[C@H](C(=O)N[C@@H](CC(C)C)C(=O)N[C@@H](CO)C(=O)N[C@@H](CC(C)C)C(=O)N[C@@H](CC(=O)O)C(=O)N[C@@H](C(=O)N1CCC[C@H]1C(=O)N[C@H](C(=O)NCC(=O)N[C@@H](CC(C)C)C(=O)N[C@@H](CCCCNC(=O)CC[C@H](NC(=O)CCCCCCCCCCCCCCCCCCC(=O)O)C(=O)O)C(=O)N[C@@H](CCCCN)C(=O)N[C@H](C(=O)N[C@@H](CC(C)C)C(=O)N[C@@H](CC(C)C)C(=O)N[C@@H](CCC(=O)O)C(=O)N[C@@H](CCC(N)=O)C(=O)N[C@@H](CCC(=O)O)C(=O)N[C@@H](CCCCN)C(=O)N[C@@H](CCC(N)=O)C(=O)N[C@@H](CCCCN)C(=O)N[C@@H](CCCCN)C(=O)N[C@@H](CCC(N)=O)C(=O)N[C@@H](CCCNC(=N)N)C(=O)N[C@@H](CCC(=O)O)C(=O)N[C@@H](CCC(N)=O)C(=O)N[C@@H](C)C(=O)N[C@@H](CCC(=O)O)C(=O)N[C@H](C(=O)N[C@@H](CC(N)=O)C(=O)NC1(C(=O)N[C@@H](CCC(N)=O)C(=O)N[C@H](C(=O)N[C@@H](CC(C)C)C(=O)N[C@@H](C)C(=O)N[C@@H](CCC(N)=O)C(=O)N[C@H](C(N)=O)C(C)C)[C@@H](C)CC)CCNCC1)[C@@H](C)O)[C@@H](C)CC)[C@@H](C)CC)C(C)C)C(C)C) [SEQ ID NO 227],0.2,97,1.74
Ac-IVLSLD[dV]PIGLK([γGlu-C20 diacid])KILLEQEKQKKQREQAETN[Aib]QILAQV-NH2 (SMILES CC[C@H](C)[C@H](NC(C)=O)C(=O)N[C@H](C(=O)N[C@@H](CC(C)C)C(=O)N[C@@H](CO)C(=O)N[C@@H](CC(C)C)C(=O)N[C@@H](CC(=O)O)C(=O)N[C@@H](C(=O)N1CCC[C@H]1C(=O)N[C@H](C(=O)NCC(=O)N[C@@H](CC(C)C)C(=O)N[C@@H](CCCCNC(=O)CC[C@H](NC(=O)CCCCCCCCCCCCCCCCCCC(=O)O)C(=O)O)C(=O)N[C@@H](CCCCN)C(=O)N[C@H](C(=O)N[C@@H](CC(C)C)C(=O)N[C@@H](CC(C)C)C(=O)N[C@@H](CCC(=O)O)C(=O)N[C@@H](CCC(N)=O)C(=O)N[C@@H](CCC(=O)O)C(=O)N[C@@H](CCCCN)C(=O)N[C@@H](CCC(N)=O)C(=O)N[C@@H](CCCCN)C(=O)N[C@@H](CCCCN)C(=O)N[C@@H](CCC(N)=O)C(=O)N[C@@H](CCCNC(=N)N)C(=O)N[C@@H](CCC(=O)O)C(=O)N[C@@H](CCC(N)=O)C(=O)N[C@@H](C)C(=O)N[C@@H](CCC(=O)O)C(=O)N[C@H](C(=O)N[C@@H](CC(N)=O)C(=O)NC(C)(C)C(=O)N[C@@H](CCC(N)=O)C(=O)N[C@H](C(=O)N[C@@H](CC(C)C)C(=O)N[C@@H](C)C(=O)N[C@@H](CCC(N)=O)C(=O)N[C@H](C(N)=O)C(C)C)[C@@H](C)CC)[C@@H](C)O)[C@@H](C)CC)[C@@H](C)CC)C(C)C)C(C)C) [SEQ ID NO 226],0.18,82,42.1
Propionyl-VLSLDVPIKLK([AEEA-AEEA-γGlu-C18 diacid])KILLEQEKQKKQREQAETNKQILAQV-NH2 (SMILES CCC(=O)N[C@H](C(=O)N[C@@H](CC(C)C)C(=O)N[C@@H](CO)C(=O)N[C@@H](CC(C)C)C(=O)N[C@@H](CC(=O)O)C(=O)N[C@H](C(=O)N1CCC[C@H]1C(=O)N[C@H](C(=O)N[C@@H](CCCCN)C(=O)N[C@@H](CC(C)C)C(=O)N[C@@H](CCCCNC(=O)COCCOCCNC(=O)COCCOCCNC(=O)CC[C@H](NC(=O)CCCCCCCCCCCCCCCCC(=O)O)C(=O)O)C(=O)N[C@@H](CCCCN)C(=O)N[C@H](C(=O)N[C@@H](CC(C)C)C(=O)N[C@@H](CC(C)C)C(=O)N[C@@H](CCC(=O)O)C(=O)N[C@@H](CCC(N)=O)C(=O)N[C@@H](CCC(=O)O)C(=O)N[C@@H](CCCCN)C(=O)N[C@@H](CCC(N)=O)C(=O)N[C@@H](CCCCN)C(=O)N[C@@H](CCCCN)C(=O)N[C@@H](CCC(N)=O)C(=O)N[C@@H](CCCNC(=N)N)C(=O)N[C@@H](CCC(=O)O)C(=O)N[C@@H](CCC(N)=O)C(=O)N[C@@H](C)C(=O)N[C@@H](CCC(=O)O)C(=O)N[C@H](C(=O)N[C@@H](CC(N)=O)C(=O)N[C@@H](CCCCN)C(=O)N[C@@H](CCC(N)=O)C(=O)N[C@H](C(=O)N[C@@H](CC(C)C)C(=O)N[C@@H](C)C(=O)N[C@@H](CCC(N)=O)C(=O)N[C@H](C(N)=O)C(C)C)[C@@H](C)CC)[C@@H](C)O)[C@@H](C)CC)[C@@H](C)CC)C(C)C)C(C)C) [SEQ ID NO 94],1.48,0,–
